From publication PMC2151661 come the findings set out here.

In experiment [1] the target is human ENaC αβγ_(V182G;V193G) (human) (UniProt P37088).
In experiment [2] the target is wild-type human epithelial Na+ channel (α, β, γ ENaC) (human) (UniProt P37088).
For experiment [3] the target is unchanged. The source holds these as a separate data set.
The target of experiment [4] is human ENaC αβγ_(V182G;V193G) (human) (UniProt P37088). This is another data set of the same source.
The target of experiment [5] is wild-type human epithelial Na+ channel (α, β, γ ENaC) (human) (UniProt P37088). This is another data set of the same source.
The target of experiment [6] is human ENaC αβγTh (thrombin consensus sequence LVPRG at γ186-190) (human) (UniProt P37088).
Experiment [7] concerns the target human ENaC αβγ_(A190G) (human) (UniProt P37088).
Experiment [8] addresses human ENaC αβγ_(V182G;V193G) (human) (UniProt P37088). The source holds these as a separate data set.
The target in experiment [9] is wild-type human epithelial Na+ channel (α, β, γ ENaC) (human) (UniProt P37088). This is another data set of the same source.
Experiment [10] concerns the target human ENaC αβγ_(V182G;V193G) (human) (UniProt P37088). The source holds these as a separate data set.
For experiment [11], the target named is wild-type human epithelial Na+ channel (α, β, γ ENaC) (human) (UniProt P37088). The source holds these as a separate data set.
Experiment [12] has as its target human ENaC αβγ_(V182G;V193G) (human) (UniProt P37088). This is another data set of the same source.
Experiment [13] deals with wild-type human epithelial Na+ channel (α, β, γ ENaC) (human) (UniProt P37088). This is another data set of the same source.
Experiment [14] deals with human ENaC αβγ_(A190G) (human) (UniProt P37088). The source holds these as a separate data set.

Take “human neutrophil elastase (from UniProt P08246 30-267) (enzyme)”: the K1/2 (NE concentration at half maximal stimulation of ΔIPR^Norm) in experiment [1] was determined as 510 nM; in [2], 100 nM. For the same substance, in experiment [2], the apparent KM from kobs (1/τ) of INa activation against NE concentration (Eq. 8) came out at 0.57 µM. Besides, the ΔIPR^Norm, 300 nM NE, aprotinin-treated FRT cells (comparison with αβγTh) in experiment [3] was determined as 0.6. In addition, the results for the ΔIPR^Norm against NE concentration, 30 to 1,000 nM, aprotinin-treated FRT cells in experiment [4] and in experiment [5] were 0.52 and 0.75, respectively.

Consider human α thrombin (enzyme), for which, in experiment [6], the K1/2 (TH concentration at half maximal stimulation of ΔIPR^Norm) was 14.8 nM and the apparent KM from kobs of INa activation against TH concentration (Eq. 8) was 0.34 µM. In addition, the ΔIPR^Norm, 300 nM TH, aprotinin-treated FRT cells in experiment [3] amounted to 0.1.

With “porcine pancreatic elastase (from UniProt P00772 27-266) (enzyme)”, in [3], the ΔIPR^Norm, 300 nM PE, aprotinin-treated FRT cells (comparison with αβγTh) amounted to 0.7. Also, the K1/2 (PE concentration at half maximal stimulation of ΔIPR^Norm) stood at 1140 nM in experiment [7], 35 nM in [10] and 77 nM in experiment [11]. The time constant τ of INa activation by 300 nM PE, aprotinin-treated FRT cells in experiment [8] came to 3.6 min; in [9] it was 2 min. Also, the figures for the apparent KM from kobs of INa activation against PE concentration (Eq. 8) in [10] and in [11] were 0.29 µM and 0.204 µM, respectively. For the same substance, the time constant τ of INa activation by 1,000 nM PE, aprotinin-treated FRT cells was 2.17 min in experiment [12] and 1.94 min in [13]. For the same substance, the ΔIPR^Norm, 1,000 nM PE, aprotinin-treated FRT cells came to 0.89 in experiment [12], 0.7 in experiment [13] and 0.26 in experiment [14].
